Substrate in the series: Nc1ncnc2c1ncn2[C@@H]1O[C@H](COP(=O)(O)OP(=O)(O)OP(=O)(O)O)[C@@H](O)[C@H]1O
Briefly: purified protein. The series is classed as biochemical, Saccharolobus solfataricus. To be noted: with ssDNA; labelled compound.

B1: SsoRadA (Sulfolobus solfataricus RadA) (Saccharolobus solfataricus P2) (protein)
chain: MSNEVEQKKNIKTINDLPGISQTVINKLIEAGYSSLETLAVASPQDLSVAAGIPLSTAQKIIKEARDALDIRFKTALEVKKERMNVKKISTGSQALDGLLAGGIETRTMTEFFGEFGSGKTQLCHQLSVNVQLPPEKGGLSGKAVYIDTEGTFRWERIENMAKALGLDIDNVMNNIYYIRAINTDHQIAIVDDLQELVSKDPSIKLIVVDSVTSHFRAEYPGRENLAVRQQKLNKHLHQLTRLAEVYDIAVIITNQVMARPDMFYGDPTVAVGGHTLYHVPGIRIQLKKSRGNRRIARVVDAPHLPEGEVVFALTEEGIRDAEE
notes: purified recombinant protein; homo-oligomeric nucleoprotein filament on ssDNA; F73, R72, R83 given
B1: the Km (as a rule, the substrate concentration at which the rate is half of its maximum) turned out to be 398 ± 52 µM and the kcat (commonly the maximal rate divided by the concentration of active sites) is 0.000617 ± 5e-05 s⁻¹.

B2: SsoRadA (Sulfolobus solfataricus RadA) (Saccharolobus solfataricus P2; R72G) (protein)
chain: MSNEVEQKKNIKTINDLPGISQTVINKLIEAGYSSLETLAVASPQDLSVAAGIPLSTAQKIIKEARDALDIGFKTALEVKKERMNVKKISTGSQALDGLLAGGIETRTMTEFFGEFGSGKTQLCHQLSVNVQLPPEKGGLSGKAVYIDTEGTFRWERIENMAKALGLDIDNVMNNIYYIRAINTDHQIAIVDDLQELVSKDPSIKLIVVDSVTSHFRAEYPGRENLAVRQQKLNKHLHQLTRLAEVYDIAVIITNQVMARPDMFYGDPTVAVGGHTLYHVPGIRIQLKKSRGNRRIARVVDAPHLPEGEVVFALTEEGIRDAEE
notes: as for B1
B2: the Michaelis-Menten constant (Km) was 176 ± 23 µM and the kcat was 0.000267 ± 1.7e-05 s⁻¹.

B3: SsoRadA (Sulfolobus solfataricus RadA) (Saccharolobus solfataricus P2; R72P) (protein)
chain: MSNEVEQKKNIKTINDLPGISQTVINKLIEAGYSSLETLAVASPQDLSVAAGIPLSTAQKIIKEARDALDIPFKTALEVKKERMNVKKISTGSQALDGLLAGGIETRTMTEFFGEFGSGKTQLCHQLSVNVQLPPEKGGLSGKAVYIDTEGTFRWERIENMAKALGLDIDNVMNNIYYIRAINTDHQIAIVDDLQELVSKDPSIKLIVVDSVTSHFRAEYPGRENLAVRQQKLNKHLHQLTRLAEVYDIAVIITNQVMARPDMFYGDPTVAVGGHTLYHVPGIRIQLKKSRGNRRIARVVDAPHLPEGEVVFALTEEGIRDAEE
notes: as for B1
In the case of B3, the Michaelis-Menten constant (Km) came out at 143 ± 10 µM and the kcat stood at 0.000267 ± 1.7e-05 s⁻¹.

B4: SsoRadA (Sulfolobus solfataricus RadA) (Saccharolobus solfataricus P2; R72A) (protein)
chain: MSNEVEQKKNIKTINDLPGISQTVINKLIEAGYSSLETLAVASPQDLSVAAGIPLSTAQKIIKEARDALDIAFKTALEVKKERMNVKKISTGSQALDGLLAGGIETRTMTEFFGEFGSGKTQLCHQLSVNVQLPPEKGGLSGKAVYIDTEGTFRWERIENMAKALGLDIDNVMNNIYYIRAINTDHQIAIVDDLQELVSKDPSIKLIVVDSVTSHFRAEYPGRENLAVRQQKLNKHLHQLTRLAEVYDIAVIITNQVMARPDMFYGDPTVAVGGHTLYHVPGIRIQLKKSRGNRRIARVVDAPHLPEGEVVFALTEEGIRDAEE
notes: as for B1
As for B4, the Michaelis-Menten constant (Km) turned out to be 37 ± 11 µM and the kcat worked out at 0.000183 ± 3.3e-05 s⁻¹.

Source of the values: article PMC2654063, “Three New Structures of Left-Handed RadA Helical Filaments: Structural Flexibility of N-Terminal Domain Is Critical for Recombinase Activity” (PLoS ONE, 2009).
